target: syt2_rat Syt2 (UniProt P29101)

Question: With “Botulinum neurotoxin type B (Clostridium botulinum) (from UniProt P10844) F1194A” as the substance, how does the “effect of a mutation on the interaction” value read?
Answer: Its value is “disrupting interaction strength”.

Question: For “Botulinum neurotoxin type B (Clostridium botulinum) (from UniProt P10844) F1204A”, which “effect of a mutation on the interaction” value is on record?
Answer: The value was “disrupting interaction strength”.

Question: How did the “effect of a mutation on the interaction” value turn out when “Botulinum neurotoxin type B (Clostridium botulinum) (from UniProt P10844) K1192E” was run?
Answer: Its value is “decreasing interaction strength”.

Question: Which “effect of a mutation on the interaction” value does the source give for “Botulinum neurotoxin type B (Clostridium botulinum) (from UniProt P10844) V1118D” here?
Answer: The value was “decreasing interaction strength”.

From IntAct's records for PubMed 17167421
